± gives the standard deviation of the averaged measurements.
Assay: total protein half-life in vivo (active degradation + dilution); higher = more stable protein
[1] = E. coli NCM3722 delta-clpP delta-lon delta-hslV, growth: N-lim chemostat, doubling time 6 h
[2] = E. coli NCM3722 delta-hslV, growth: N-lim chemostat, doubling time 6 h
[3] = E. coli NCM3722 delta-smpB, growth: N-lim chemostat, doubling time 6 h
[4] = wild type E. coli NCM3722, growth: C-lim chemostat, doubling time 3 h
[5] = wild type E. coli NCM3722, growth: C-lim chemostat, doubling time 6 h
[6] = wild type E. coli NCM3722, growth: C-lim chemostat, doubling time 12 h
[7] = wild type E. coli NCM3722, growth: N-lim chemostat, doubling time 12 h
[8] = wild type E. coli NCM3722, growth: P-lim chemostat, doubling time 6 h
[9] = wild type E. coli NCM3722, growth: P-lim chemostat, doubling time 12 h
[10] = E. coli NCM3722 delta-clpP, growth: N-lim chemostat, doubling time 6 h
[11] = E. coli NCM3722 delta-lon, growth: N-lim chemostat, doubling time 6 h
[12] = wild type E. coli NCM3722, growth: N-lim chemostat, doubling time 6 h

MDFSLTEEQELLLASIRELITTNFPEEYFRTCDQNGTYPREFMRALADNGISMLGVPEEFGGIPADYVTQMLALMEVSKCGAPAFLITNGQCIHSMRRFGSAEQLRKTAESTLETGDPAYALALTEPGAGSDNNSATTTYTRKNGKVYINGQKTFITGAKEYPYMLVLARDPQPKDPKKAFTLWWVDSSKPGIKINPLHKIGWHMLSTCEVYLDNVEVEESDMVGEEGMGFLNVMYNFEMERLINAARSTGFAECAFEDAARYANQRIAFGKPIGHNQMIQEKLALMAIKIDNMRNMVLKVAWQADQHQSLRTSAALAKLYCARTAMEVIDDAIQIMGGLGYTDEARVSRFWRDVRCERIGGGTDEIMIYVAGRQILKDYQNK [P0A9U8]
total protein half-life in vivo [1]: 6.36 ± 0.59 h | total protein half-life in vivo [2]: 1.41 h | total protein half-life in vivo [3]: 1.03 h | total protein half-life in vivo [4]: 2.23 h | total protein half-life in vivo [5]: > 8 h | total protein half-life in vivo [6]: 2.25 h | total protein half-life in vivo [7]: 2.165 ± 0.02 h | total protein half-life in vivo [8]: 0.772 h | total protein half-life in vivo [9]: 2.42 h

MDHAIYTAMGAASQTLNQQAVTASNLANASTPGFRAQLNALRAVPVEGLSLPTRTLVTASTPGADMTPGKMDYTSRPLDVALQQDGWLAVQTADGSEGYTRNGSIQVDPTGQLTIQGHPVIGEAGPIAVPEGAEITIAADGTISALNPGDPANTVAPVGRLKLVKATGSEVQRGDDGIFRLSAETQATRGPVLQADPTLRVMSGVLEGSNVNAVAAMSDMIASARRFEMQMKVISSVDDNAGRANQLLSMS
total protein half-life in vivo [4]: 0.504 ± 0.13 h | total protein half-life in vivo [6]: 3.33 ± 1.4 h

MDHLPMPKFGPLAGLRVVFSGIEIAGPFAGQMFAEWGAEVIWIENVAWADTIRVQPNYPQLSRRNLHALSLNIFKDEGREAFLKLMETTDIFIEASKGPAFARRGITDEVLWQHNPKLVIAHLSGFGQYGTEEYTNLPAYNTIAQAFSGYLIQNGDVDQPMPAFPYTADYFSGLTATTAALAALHKVRETGKGESIDIAMYEVMLRMGQYFMMDYFNGGEMCPRMSKGKDPYYAGCGLYKCADGYIVMELVGITQIEECFKDIGLAHLLGTPEIPEGTQLIHRIECPYGPLVEEKLDAWLATHTIAEVKERFAELNIACAKVLTVPELESNPQYVARESITQWQTMDGRTCKGPNIMPKFKNNPGQIWRGMPSHGMDTAAILKNIGYSENDIQELVSKGLAKVED
total protein half-life in vivo [1]: 6.21 ± 0.21 h | total protein half-life in vivo [10]: 4.41 h | total protein half-life in vivo [2]: 4.77 ± 0.81 h | total protein half-life in vivo [11]: 4.71 h | total protein half-life in vivo [3]: 4.726 ± 0.00071 h | total protein half-life in vivo [4]: > 4 h | total protein half-life in vivo [6]: 13 h | total protein half-life in vivo [7]: 8.76 h | total protein half-life in vivo [8]: 6.27 h

MDHRLLEIIACPVCNGKLWYNQEKQELICKLDNLAFPLRDGIPVLLETEARVLTADESKS [P0AAZ7]
total protein half-life in vivo [1]: > 8 h | total protein half-life in vivo [10]: 5.82 ± 0.15 h | total protein half-life in vivo [11]: 4.19 ± 0.043 h | total protein half-life in vivo [3]: 4.65 ± 1.2 h | total protein half-life in vivo [4]: 1.64 ± 0.1 h | total protein half-life in vivo [5]: 4.73 ± 0.12 h | total protein half-life in vivo [6]: 8.88 ± 1.5 h | total protein half-life in vivo [12]: 3.05 ± 0.11 h | total protein half-life in vivo [7]: 6.3 ± 0.69 h | total protein half-life in vivo [8]: 3.69 ± 0.26 h | total protein half-life in vivo [9]: 7.87 ± 0.7 h

MDHSLNSLNNFDFLARSFARMHAEGRPVDILAVTGNMDEEHRTWFCARYAWYCQQMMQARELELEH
total protein half-life in vivo [1]: 2.86 h

MDIFISKKMRNFILLAQTNNIARAAEKIHMTASPFGKSIAALEEQIGYTLFTRKDNNISLNKAGQELYQKLFPVYQRLSAIDNEIHNSGRRSREIVIGIDNTYPTIIFDQLISLGDKYEGVTAQPVEFSENGVIDNLFDRQLDFIISPQHVSARVQELENLTISELPPLRLGFLVSRRYEERQEQELLQELPWLQMRFQNRANFEAMIDANMRPCGINPTIIYRPYSFMAKISAVERGHFLTVIPHFAWRLVNPATLKYFDAPHRPMYMQEYLYSIRNHRYTATMLQHIAEDRDGTSH
total protein half-life in vivo [1]: 5.12 h | total protein half-life in vivo [7]: 9.66 h

MDIVFIEQLSVITTIGVYDWEQTIEQKLVFDIEMAWDNRKAAKSDDVADCLSYADIAETVVSHVEGARFALVERVAEEVAELLLARFNSPWVRIKLSKPGAVARAANVGVIIERGNNLKENN [P0AC16]
total protein half-life in vivo [1]: 5.71 ± 0.35 h | total protein half-life in vivo [10]: 5.86 h | total protein half-life in vivo [2]: 5.4 ± 0.43 h | total protein half-life in vivo [11]: 5.47 ± 0.74 h | total protein half-life in vivo [4]: 3.26 ± 0.37 h | total protein half-life in vivo [5]: 6.02 ± 0.37 h | total protein half-life in vivo [6]: 11.8 ± 1.3 h | total protein half-life in vivo [12]: 5.39 ± 0.56 h | total protein half-life in vivo [7]: 10.7 ± 2.2 h | total protein half-life in vivo [8]: 6.4 ± 0.65 h | total protein half-life in vivo [9]: 12.39 ± 0.043 h

MDKIHAMQLFIKVAELESFSRAADFFALPKGSVSRQIQALEHQLGTQLLQRTTRRVKLTPEGMTYYQRAKDVLSNLSELDGLFQQDATSISGKLRIDIPPGIAKSLLLPRLSEFLYLHPGIELELSSHDRPVDILHDGFDCVIRTGALPEDGVIARPLGKLTMVNCASPHYLTRFGYPQSPDDLTSHAIVRYTPHLGVHPLGFEVASVNGVQWFKSGGMLTVNSSENYLTAGLAGLGIIQIPRIAVREALRAGRLIEVLPGYRAEPLSLSLVYPQRRELSRRVNLFMQWLAGVMKEYLD
total protein half-life in vivo [1]: 6.09 ± 0.38 h | total protein half-life in vivo [10]: 4.8 ± 0.34 h | total protein half-life in vivo [2]: 2.08 h | total protein half-life in vivo [11]: 3.35 ± 0.51 h | total protein half-life in vivo [3]: 2.76 h | total protein half-life in vivo [4]: 2.32 h | total protein half-life in vivo [5]: 3.43 ± 0.34 h | total protein half-life in vivo [6]: 7.24 ± 3.2 h

MDKVLDSALLSSANKRKGILAIGAHPDDIELGCGASLARLAQKGIYIAAVVMTTGNSGTDGIIDRHEESRNALKILGCHQTIHLNFADTRAHLQLNDMISALEDIIKNQIPSDVEIMRVYTMHDADRHQDHLAVYQASMVACRTIPQILGYETPSTWLSFMPQVFESVKEEYFTVKLAALKKHKS
total protein half-life in vivo [1]: 5.73 h

MDLASLRAQQIELASSVIREDRLDKDPPDLIAGADVGFEQGGEVTRAAMVLLKYPSLELVEYKVARIATTMPYIPGFLSFREYPALLAAWEMLSQKPDLVFVDGHGISHPRRLGVASHFGLLVDVPTIGVAKKRLCGKFEPLSSEPGALAPLMDKGEQLAWVWRSKARCNPLFIATGHRVSVDSALAWVQRCMKGYRLPEPTRWADAVASERPAFVRYTANQP
total protein half-life in vivo [10]: 5.52 ± 0.25 h | total protein half-life in vivo [2]: 4.58 ± 0.4 h | total protein half-life in vivo [11]: 4.952 ± 0.015 h | total protein half-life in vivo [3]: 4.62 ± 0.2 h | total protein half-life in vivo [4]: 3.05 ± 0.12 h | total protein half-life in vivo [5]: 6.09 ± 0.24 h | total protein half-life in vivo [6]: 11.3 ± 0.85 h | total protein half-life in vivo [12]: 5.08 ± 0.14 h | total protein half-life in vivo [7]: 8.84 ± 0.67 h | total protein half-life in vivo [8]: 5.3 ± 0.39 h | total protein half-life in vivo [9]: 9.801 ± 0.042 h

MDLIYFLIDFILHIDVHLAELVAEYGVWVYAILFLILFCETGLVVTPFLPGDSLLFVAGALASLETNDLNVHMMVVLMLIAAIVGDAVNYTIGRLFGEKLFSNPNSKIFRRSYLDKTHQFYEKHGGKTIILARFVPIVRTFAPFVAGMGHMSYRHFAAYNVIGALLWVLLFTYAGYFFGTIPMVQDNLKLLIVGIIVVSILPGVIEIIRHKRAAARAAK [P0ABP6]
total protein half-life in vivo [1]: 3.68 ± 0.076 h | total protein half-life in vivo [10]: 3.87 h | total protein half-life in vivo [2]: 3.74 h | total protein half-life in vivo [11]: 3.148 ± 0.016 h | total protein half-life in vivo [3]: 4.71 ± 0.57 h | total protein half-life in vivo [4]: 2.65 ± 0.21 h | total protein half-life in vivo [5]: 5.03 ± 0.88 h | total protein half-life in vivo [6]: 9.21 ± 3.2 h | total protein half-life in vivo [12]: 3.7 ± 0.13 h | total protein half-life in vivo [7]: 6.2 ± 0.26 h | total protein half-life in vivo [9]: 7.57 ± 1.5 h
